# Reference: patent US20110287979A1 (ONCOMED PHARMACEUTICALS, published 2011)
# Molecular target: T1, hJag1-rFc (human; rabbit, UniProt P78504 34-1067; P01870 96-323, limits assumed)
# T1 construct: also called hJag-rFc; control antigen
# Test: FACS of transfected HEK-293 cells incubated with hJag-rFc and PE-labeled anti-rabbit Fc antibody
# Experimental: The effect of carrier plasmid on the transfection and display of an Ab-encoding plasmid was tested. The single chain anti-DLL4 antibody (sc21M18) described above was transfected with varying ratios of carrier plasmid. In this study, the carrier plasmid encoded an irrelevant […] antibody (sc18R5). The cells were also transfected with the Membrane-MAb(hIgG2)-GFP construct. The concentration of Ab library plasmid in the cells could be inferred from the level of surface expression of the anti-DLL4 antibody molecule. Approximately 5×10⁶ HEK-293 cells were transfected with plasmid DNA and harvested after 48 hours. The plasmid DNA was a mixture of sc21M18 and sc18R5, wherein the ratio of sc21M18 to sc18R5 varied from 1 to 10,000-fold excess of sc18R5 (1, 10, 100, 1000 or 10,000-fold excess). For detection of a functional anti-DLL4 antibody molecule on the cell surface, transfected cells were incubated with an hDLL4-rFc fusion protein. Bound hDLL4-rFc was detected with a PE-labeled anti-rabbit Fc antibody. The percentage of cells which expressed anti-DLL4 antibody was determined by FACS analysis. Cells were also incubated with a control antigen (hJag-rFc, -▪-) or only the PE-labeled anti-rabbit Fc antibody (-▴-).
# T1 sequence (P78504 other isoform, or with tags, fused parts or gaps limits assumed): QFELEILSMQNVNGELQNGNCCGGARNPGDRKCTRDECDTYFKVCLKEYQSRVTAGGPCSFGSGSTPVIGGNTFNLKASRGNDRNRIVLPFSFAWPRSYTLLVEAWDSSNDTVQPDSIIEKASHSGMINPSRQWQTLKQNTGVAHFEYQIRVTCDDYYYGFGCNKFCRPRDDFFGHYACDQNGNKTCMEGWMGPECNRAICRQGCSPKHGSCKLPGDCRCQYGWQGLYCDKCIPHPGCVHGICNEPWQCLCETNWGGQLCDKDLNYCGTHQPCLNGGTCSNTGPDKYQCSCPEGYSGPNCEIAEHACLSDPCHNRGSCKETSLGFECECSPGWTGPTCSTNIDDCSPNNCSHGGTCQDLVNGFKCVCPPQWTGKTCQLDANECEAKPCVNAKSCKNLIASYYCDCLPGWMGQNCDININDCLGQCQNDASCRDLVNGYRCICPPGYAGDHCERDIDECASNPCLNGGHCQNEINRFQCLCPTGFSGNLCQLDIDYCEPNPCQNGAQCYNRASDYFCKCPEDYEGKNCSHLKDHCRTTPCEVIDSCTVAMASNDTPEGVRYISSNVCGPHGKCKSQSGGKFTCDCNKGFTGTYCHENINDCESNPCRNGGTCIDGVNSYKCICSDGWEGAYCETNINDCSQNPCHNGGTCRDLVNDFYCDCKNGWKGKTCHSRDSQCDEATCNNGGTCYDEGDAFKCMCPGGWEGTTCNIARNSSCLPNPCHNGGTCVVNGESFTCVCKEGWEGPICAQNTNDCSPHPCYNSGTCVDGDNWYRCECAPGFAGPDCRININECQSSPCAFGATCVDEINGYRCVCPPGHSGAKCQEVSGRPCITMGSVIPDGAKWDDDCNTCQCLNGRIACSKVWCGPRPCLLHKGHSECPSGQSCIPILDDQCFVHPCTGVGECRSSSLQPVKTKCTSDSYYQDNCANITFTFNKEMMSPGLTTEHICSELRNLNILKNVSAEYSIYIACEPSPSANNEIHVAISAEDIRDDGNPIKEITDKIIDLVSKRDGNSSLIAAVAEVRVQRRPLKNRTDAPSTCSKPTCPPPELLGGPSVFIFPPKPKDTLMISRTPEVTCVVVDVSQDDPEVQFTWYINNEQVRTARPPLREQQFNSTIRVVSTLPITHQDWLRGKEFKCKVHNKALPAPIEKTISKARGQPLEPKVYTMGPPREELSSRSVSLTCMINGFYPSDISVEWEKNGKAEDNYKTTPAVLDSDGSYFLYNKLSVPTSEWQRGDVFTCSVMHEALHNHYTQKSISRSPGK
binder,measurement,value
"heterodimeric antibody molecule: single chain anti-DLL4 antibody sc21M18 associated with the Membrane-MAb(hIgG2)-GFP protein on the surface of HEK-293 cells (antibody, also called anti-DLL4 antibody molecule) chain 1: DIVMTQSPDSLAVSLGERATISCRASESVDNYGISFMKWFQQKPGQPPKLLIYAASNQGSGVPDRFSGSGSGTDFTLTISSLQAEDVAVYYCQQSKEVPWTFGGGTKVEIKRTVAAPSVFIFPPSDEQLKSGTASVVCLLNNFYPREAKVQWKVDNALQSGNSQESVTEQDSKDSTYSLSSTLTLSKADYEKHKVYACEVTHQGLSSPVTKSFNRGECGGGGGSGGGGSGGGGSGGGGSGGGGSGGGGSQVQLVQSGAEVKKPGASVKISCKASGYSFTAYYIHWVKQAPGQGLEWIGYISSYNGATNYNQKFKGRVTFTTDTSTSTAYMELRSLRSDDTAVYYCARDYDYDVGMDYWGQGTLVTVSSASTKGPSVFPLAPCSRSTSESTAALGCLVKDYFPEPVTVSWNSGALTSGVHTFPAVLQSSGLYSLSSVVTVPSSNFGTQTYTCNVDHKPSNTKVDKTVERKCCVECPPCPAPPVAGPSVFLFPPKPKDTLMISRTPEVTCVVVDVSHEDPEVQFNWYVDGVEVHNAKTKPREEQFNSTFRVVSVLTVVHQDWLNGKEYKCKVSNKGLPAPIEKTISKTKGQPREPQVYTLPPSREEMTKNQVSLTCLVKGFYPSDIAVEWESNGQPENNYKTTPPMLDSDGSFFLYSKLTVDKSRWQQGNVFSCSVMHEALHNHYTQKSLSLSPGK chain 2: not shown",binding result,no binding
